Like-named read-outs stand apart in the source and are kept apart here.
Legend:
in vivo = details: female, athymic nude (Nu/Nu), mouse, iv, total radioactivity; for tissue uptake at 2 h: microPET 2 hr; for tissue uptake at 4 h: microPET 4 hr; for tissue uptake at 24 h: microPET 24 hr
Experimental: (§1) Female athymic nude mice, 4–6 weeks old (Charles River), were subcutaneously shoulder-injected with 10^7 cells suspended in 100 µL PBS. Mice were used for imaging and biodistribution studies when xenografted tumors grew to a diameter of ~1 cm.
(§2) Tumor-bearing Nu/Nu female mice (n = 3 for each probe) were anesthetized using 2% isoflurane in oxygen and injected with ~100 µCi (~0.15 nmol) of the tracers described above via the tail vein. Five-minute static PET scans were acquired on an Inveon PET-CT or Inveon D-PET scanner (Siemens Healthcare, Malvern PA). Images were reconstructed by a two-dimensional ordered expectation maximum subset algorithm and calibrated as described below. ROIs were drawn over the tumor on decay-corrected whole-body images using Inveon Research Workplace (IRW) software (Siemens) or ASIPro VM software (Siemens). ROIs were converted to counts g^−1 min^−1, and %ID g^−1 values were determined assuming a tissue density of 1 g ml^−1.
(§3) Scanner activity calibration was performed to map between PET image units and units of radioactivity concentration. A preweighed 50-mL centrifuge tube was filled with distilled water and ^64CuCl2 (∼9.3 MBq [∼250 μCi] as determined by the dose calibrator) was used to simulate the whole body of the mouse. This tube was weighed, centered in the scanner aperture, and imaged for a 30-min static image, single bed position. From the sample weight and assuming a density of 1 g ml^−1, the activity concentration in the bottle was calculated in units of μCi mL^−1. Eight planes were acquired in the coronal section. A rectangular region of interest (ROI) (counts/pixel/s) was drawn on the middle of eight coronal planes.

[1] = tested on: αvβ6 expressing BxPC3 pancreatic cancer xenografts
Experimental: as §1, §2, §3

[2] = tumor (BxPC3 xenograft), Tumor avb6(+), individual mice
[3] = microPET 2 hr, individual mice, listed as R01 DOTA Cu-64
[4] = microPET 4 hr, individual mice, listed as R01 DOTA Cu-64
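Further: shoulder subcutaneous xenografts near 1 cm, tracer given via tail vein, 5-min static PET, ROI activity on decay-corrected images converted to %ID/g with tissue density taken as 1 g/mL.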

**Q.** For CC[C@H](C)[C@@H]1NC(=O)[C@@H](NC(=O)CNC(=O)CN2CCN(CC(=O)O)CCN(CC(=O)O)CCN(CC(=O)O)CC2)CSSC[C@@H]2NC(=O)[C@H](C)NC(=O)CNC(=O)[C@@H]3CCCN3C(=O)[C@@H]3CSSC[C@@H](C(=O)NCC(N)=O)NC(=O)[C@H](Cc4ccc(O)cc4)NC(=O)CNC(=O)[C@H](CC(N)=O)NC(=O)CNC(=O)[C@H](CCCNC(=N)N)NC(=O)[C@H](CSSC[C@H](NC(=O)[C@H](CCCNC(=N)N)NC(=O)[C@H](Cc4ccccc4)NC(=O)[C@H](CC(C)C)NC(=O)[C@H](CC(C)C)NC(=O)[C@H]([C@@H](C)O)NC(=O)CNC(=O)[C@H](CC(C)C)NC(=O)[C@H](CC(=O)O)NC(=O)[C@H]([C@@H](C)O)NC(=O)[C@H](CCCNC(=N)N)NC(=O)[C@H](CCSC)NC(=O)[C@H](CC(N)=O)NC(=O)[C@H](CC(C)C)NC1=O)C(=O)N[C@@H](CCCNC(=N)N)C(=O)N[C@@H](CCCNC(=N)N)C(=O)N[C@@H](CC(=O)O)C(=O)N[C@@H](CO)C(=O)N[C@@H](CC(=O)O)C(=O)N3)NC(=O)[C@H]([C@@H](C)CC)NC2=O [[^64Cu]DOTA-R01, metal not drawn], which tissue uptake at 1 h (in vivo; kidney, PET, 1 h p.i., average ± SD, n = 3) is on record?
**A.** 30.3 ± 2.33 %ID/g

**Q.** And the tissue uptake at 1 h (in vivo; kidney, microPET 1 hr, individual mice)?
**A.** 32.9 %ID/g

**Q.** And the tissue uptake at 2 h (in vivo; kidney, individual mice)?
**A.** 34.3 %ID/g

**Q.** What about the tissue uptake at 4 h (in vivo; kidney, individual mice) of the same compound?
**A.** 29.8 %ID/g

**Q.** What about the tissue uptake at 24 h (in vivo; kidney, individual mice) of the same compound?
**A.** 11.5 %ID/g

**Q.** And the tissue uptake at 1 h (in vivo; liver, PET, 1 h p.i., average ± SD, n = 3)?
**A.** 2.26 ± 0.11 %ID/g

**Q.** What about the tissue uptake at 1 h (in vivo; liver, microPET 1 hr, individual mice) of the same compound?
**A.** 2.34 %ID/g

**Q.** And the tissue uptake at 2 h (in vivo; liver, individual mice)?
**A.** 1.82 %ID/g

**Q.** And the tissue uptake at 4 h (in vivo; liver, individual mice)?
**A.** 1.79 %ID/g

**Q.** What about the tissue uptake at 24 h (in vivo; liver, individual mice) of the same compound?
**A.** 2.93 %ID/g

**Q.** What about the tissue uptake at 1 h (in vivo; muscle, PET, 1 h p.i., average ± SD, n = 3) of the same compound?
**A.** 0.433 ± 0.008 %ID/g

**Q.** And the tissue uptake at 1 h (in vivo; muscle, microPET 1 hr, individual mice)?
**A.** 0.427 %ID/g

**Q.** And the tissue uptake at 2 h (in vivo; muscle, individual mice)?
**A.** 0.404 %ID/g

**Q.** And the tissue uptake at 4 h (in vivo; muscle, individual mice)?
**A.** 0.399 %ID/g

**Q.** What about the tissue uptake at 24 h (in vivo; muscle, individual mice) of the same compound?
**A.** 0.37 %ID/g

**Q.** And the tissue uptake at 1 h (in vivo; tumor (BxPC3 xenograft), Tumor avb6(+), microPET 1 hr, individual mice, one line per mouse)?
**A.** 2.99 %ID/g

**Q.** And the tissue uptake at 2 h (in vivo; [2])?
**A.** 2.87 %ID/g

**Q.** What about the tissue uptake at 4 h (in vivo; [2]) of the same compound?
**A.** 2.39 %ID/g

**Q.** What about the tissue uptake at 24 h (in vivo; [2]) of the same compound?
**A.** 1.85 %ID/g

**Q.** And the tissue uptake at 1 h (in vivo; tumor (BxPC3 xenograft, αvβ6 positive), Tumor, PET, 1 h p.i., αvβ6 (+), average ± SD, n = 3)?
**A.** 3.07 ± 0.17 %ID/g

**Q.** What about the tissue to tissue ratio at 1 h (in vivo; tumor / muscle, 100 uCi) of the same compound?
**A.** 7.09 ± 0.27

**Q.** And the Tumor ([1]; PET, 1 h p.i., αvβ6 (+), average ± SD, n = 3)?
**A.** ~ 3 %ID g^−1

**Q.** What about the Kidney ([1]; PET, 1 h p.i., average ± SD, n = 3) of the same compound?
**A.** ~ 30 %ID g^−1

**Q.** What about the Muscle ([1]; microPET 1 hr, individual mice, listed as Ro1 DOTA Cu-64) of the same compound?
**A.** 0.4306 %ID/g

**Q.** And the Muscle [1, 3]?
**A.** 0.407 %ID/g

**Q.** What about the “Tumor avb6(+)” value [1, 3] of the same compound?
**A.** 2.883 %ID/g

**Q.** And the Kidney [1, 4]?
**A.** 29.77 %ID/g

**Q.** What about the Muscle [1, 4] of the same compound?
**A.** 0.4024 %ID/g

**Q.** What about the Muscle ([1]; microPET 24 hr, individual mice, listed as R01 DOTA Cu-64) of the same compound?
**A.** 0.3725 %ID/g
